Results taken from publication PMC9756947, “Structural basis of transcription regulation by CNC family transcription factor, Nrf2” (Nucleic Acids Research, 2022).
Blank lines part the entries; values can stand above or below the binder they belong to.

Tests used:
[1] = target: T1, human Nrf2 fragment (residues 452–560) (human, UniProt Q16236 452-560); experiment: crystal structure; Nrf2, MafG and DNA (CsMBE1 or CsMBE2) mixed at a molar ratio of 1:1:1, 10 mg/ml in 33 mM DTT; two Nrf2–MafG–DNA complexes in the asymmetric unit; details: both partners purified
T1 construct: His6 tag removed with HRV 3C protease; also called NFE2L2; Nuclear factor erythroid 2-like factor; source: E. coli BL21 (DE3), purified (phosphocellulose P11, HisTrap HP, HiTrap SP, Superdex 75); not shown: His6, N-terminal, cleaved
T1 sequence (looked up): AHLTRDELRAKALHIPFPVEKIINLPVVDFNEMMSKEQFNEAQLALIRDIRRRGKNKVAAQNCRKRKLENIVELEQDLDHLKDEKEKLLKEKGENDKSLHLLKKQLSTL

[2] = target: the molecule itself; experiment: native gel or EMSA; EMSA to determine KD for DNA: dimers mixed with 32P-end labeled CsMBE DNA probe (about 1.6 pM) in 20 mM Tris–HCl pH 7.2, 150 mM KCl, 10 mM DTT, BSA, Tween 20, Poly(dI-dC), Ficol; 30 min (Jun–Fos) or 16 h (Nrf2–MafG, MafG homodimer); Nrf2 and MafG mixed at 3:1; complexes seen on DNA
[3] = target: T2, longer human Nrf2 fragment (residues 182–560) (human, UniProt Q16236 182-560); experiment: as above; details: both partners purified
T2 construct: human Nrf2 (NFE2L2), residues 182-560; Used for EMSA; also called Nrf2 (182–560); wild-type Nrf2; not shown: His6, N-terminal, kept
T2 sequence (looked up): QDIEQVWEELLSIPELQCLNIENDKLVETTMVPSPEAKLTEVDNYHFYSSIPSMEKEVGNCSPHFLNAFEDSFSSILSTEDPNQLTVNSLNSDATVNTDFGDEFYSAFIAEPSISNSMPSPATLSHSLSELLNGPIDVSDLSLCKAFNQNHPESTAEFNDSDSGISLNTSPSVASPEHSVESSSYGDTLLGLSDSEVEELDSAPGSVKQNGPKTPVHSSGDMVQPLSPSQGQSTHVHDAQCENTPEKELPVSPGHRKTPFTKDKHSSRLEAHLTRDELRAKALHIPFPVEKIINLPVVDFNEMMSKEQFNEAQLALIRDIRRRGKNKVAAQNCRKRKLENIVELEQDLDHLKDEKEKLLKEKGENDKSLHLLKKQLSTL

[4] = target: T3, human c-Fos fragment (residues 111–207) (human, UniProt P01100 111-207); experiment: as above; details: both partners purified
T3 construct: human c-Fos, residues 111-207; The tag is cleavable with HRV 3C protease, but no removal is described; source: E. coli BL21(DE3)-RIL, precipitate solubilized in 6 M guanidine-HCl, purified (HisTrap HP), dialyzed
T3 sequence (P01100 111-207): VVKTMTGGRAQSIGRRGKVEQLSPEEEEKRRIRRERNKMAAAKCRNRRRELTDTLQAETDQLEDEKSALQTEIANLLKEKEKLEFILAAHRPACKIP

[5] = target: T4, Nrf2 long fragment, wild type;MafG (EMSA construct) (Homo sapiens;Homo sapiens, UniProt Q16236;O15525 ;, |); experiment: EMSA; Nrf2:MafG 3:1; MafG concentration taken as heterodimer; 16 h; EMSA: 20 mM Tris-HCl pH 7.2, 150 mM KCl, 10 mM DTT, 8 mg/ml BSA, 0.005% Tween 20, 50 ng/ml poly(dI-dC), 2.5% Ficoll; probe ~1.6 pM; 16 h (30 min for Jun-Fos); competitive assay at 4 C; gel at 4 C; details: protein: recombinant;recombinant; tags: N-terminal His6 (not removed);N-terminal His6, removed by HRV 3C (GPHM left); copies: 1;1; label: 32P 5' end; text says 30 bp)
[6] = target: T4, Nrf2 long fragment, wild type;MafG …; experiment: EMSA (competitive, vs MafG homodimer); EC50 of Nrf2 at 1 nM MafG; 4 C, 16 h; EMSA: 20 mM Tris-HCl pH 7.2, 150 mM KCl, 10 mM DTT, 8 mg/ml BSA, 0.005% Tween 20, 50 ng/ml poly(dI-dC), 2.5% Ficoll; probe ~1.6 pM; 16 h (30 min for Jun-Fos); competitive assay at 4 C; gel at 4 C; details: protein: recombinant;recombinant; tags: N-terminal His6 (not removed);N-terminal His6, removed by HRV 3C (GPHM left); copies: 1;1; label: 32P 5' end; text says 30 bp)
[7] = target: MafG (EMSA construct) (Homo sapiens, UniProt O15525); experiment: EMSA; homodimer; 16 h; EMSA: 20 mM Tris-HCl pH 7.2, 150 mM KCl, 10 mM DTT, 8 mg/ml BSA, 0.005% Tween 20, 50 ng/ml poly(dI-dC), 2.5% Ficoll; probe ~1.6 pM; 16 h (30 min for Jun-Fos); competitive assay at 4 C; gel at 4 C; details: protein: recombinant; tags: N-terminal His6, removed by HRV 3C (GPHM left); chain copies: 2; label: 32P 5' end; text says 30 bp)
[8] = target: c-Jun fragment;c-Fos fragment (Homo sapiens;Homo sapiens, UniProt P05412;P01100 ;, |); experiment: EMSA; heterodimer; 30 min; EMSA: 20 mM Tris-HCl pH 7.2, 150 mM KCl, 10 mM DTT, 8 mg/ml BSA, 0.005% Tween 20, 50 ng/ml poly(dI-dC), 2.5% Ficoll; probe ~1.6 pM; 16 h (30 min for Jun-Fos); competitive assay at 4 C; gel at 4 C; details: protein: recombinant;recombinant; tags: N-terminal His6;N-terminal His6; copies: 1;1; label: 32P 5' end; text says 30 bp)
Sequence of c-Jun fragment;c-Fos fragment (P05412 other isoform, or with tags, fused parts or gaps |, chain 1 of 2): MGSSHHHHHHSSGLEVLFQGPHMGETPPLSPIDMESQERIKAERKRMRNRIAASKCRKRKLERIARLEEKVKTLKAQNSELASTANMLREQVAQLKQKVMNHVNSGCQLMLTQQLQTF
Sequence of c-Jun fragment;c-Fos fragment (P01100 other isoform, or with tags, fused parts or gaps |, chain 2 of 2): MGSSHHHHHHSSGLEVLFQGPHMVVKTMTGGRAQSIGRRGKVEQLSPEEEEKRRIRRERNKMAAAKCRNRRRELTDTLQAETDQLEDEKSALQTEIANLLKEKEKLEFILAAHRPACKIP

[9] = target: T5, Nrf2 DNA-binding domain (CNC-bZIP);MafG (crystal construct) (Homo sapiens;Homo sapiens, UniProt Q16236;O15525 ;, |); experiment: X-ray crystallography; 2.3 A; EMSA: 20 mM Tris-HCl pH 7.2, 150 mM KCl, 10 mM DTT, 8 mg/ml BSA, 0.005% Tween 20, 50 ng/ml poly(dI-dC), 2.5% Ficoll; probe ~1.6 pM; 16 h (30 min for Jun-Fos); competitive assay at 4 C; gel at 4 C; details: protein: recombinant;recombinant; tags: N-terminal His6, removed by HRV 3C (GPHM left);none; copies: 1;1; 1-nt 5' overhang on each strand (15 bp)
[10] = target: T5, Nrf2 DNA-binding domain (CNC-bZIP);MafG …; experiment: X-ray crystallography; 2.6 A; EMSA: 20 mM Tris-HCl pH 7.2, 150 mM KCl, 10 mM DTT, 8 mg/ml BSA, 0.005% Tween 20, 50 ng/ml poly(dI-dC), 2.5% Ficoll; probe ~1.6 pM; 16 h (30 min for Jun-Fos); competitive assay at 4 C; gel at 4 C; details: protein: recombinant;recombinant; tags: N-terminal His6, removed by HRV 3C (GPHM left);none; copies: 1;1; 1-nt 5' overhang on each strand (15 bp)

B4: EMSA CsMBE probe (dsDNA)
DNA 1: CCGCAGTCACAGTGACTCAGCAGAATCTGA
DNA 2: CTCAGATTCTGCTGAGTCACTGTGACTGCG
Kd [5]: 530 pM
apparent K (half saturation) [6]: 2.1 nM
Kd [7]: 690 pM
Kd [8]: 129000 pM

B5: CsMBE1 (dsDNA)
DNA 1: CATGATGAGTCAGCAA
DNA 2: GTTGCTGACTCATCAT
binding result [9]: binds

B6: CsMBE2 (dsDNA)
DNA 1: CACAGTGACTCAGCAG
DNA 2: GCTGCTGAGTCACTGT
binding result [10]: binds

Now from value to binder, other results behind:

binding result [1]: binds
B1: human MafG (residues 21–123, without any tag) (domain or fragment, UniProt O15525 21-123, looked up)
chain: GTSLTDEELVTMSVRELNQHLRGLSKEEIVQLKQRRRTLKNRGYAASCRVKRVTQKEELEKQKAELQQEVEKLASENASMKLELDALRSKYEALQTFARTVAR
notes: human MafG, residues 21-123: EHR, basic region and leucine zipper; Construct used for crystallization; source: E. coli BL21 (DE3), pAR2156-MafG, plating method, purified (HiTrap Heparin, Superdex 75)

binding result [3]: binds
B2: human MafG fragment (residues 21–123), His6 tag removed (domain or fragment, UniProt O15525 21-123, looked up)
chain: GTSLTDEELVTMSVRELNQHLRGLSKEEIVQLKQRRRTLKNRGYAASCRVKRVTQKEELEKQKAELQQEVEKLASENASMKLELDALRSKYEALQTFARTVAR
notes: human MafG, residues 21-123; Construct used for EMSA; also called MafG (21–123); source: E. coli BL21(DE3)-RIL, purified (phosphocellulose P11, HisTrap HP, Superdex 75); not shown: His6, N-terminal, cleaved
binding result [2]: binds

binding result [4]: binds
B3: human c-Jun fragment (residues 237–331) (domain or fragment, UniProt P05412 237-331, looked up)
chain: GETPPLSPIDMESQERIKAERKRMRNRIAASKCRKRKLERIARLEEKVKTLKAQNSELASTANMLREQVAQLKQKVMNHVNSGCQLMLTQQLQTF
notes: human c-Jun, residues 237-331; source: E. coli, expressed and purified similarly to the c-Fos fragment
